Numbered stars: 1 amine (or outer) side, 2 acyl side, 3 side chain; on linkers, the order of the positions; unused ones are H or OH. Bridge positions count the residues as written; N and C are the ends. Square brackets hold non-standard residues; d marks the D form. Ends that are not written are not given here. * marks the point of attachment. RbOHPhe4CONH2 = (2S,3R)-2-amino-3-(4-carbamoylphenyl)-3-hydroxypropanoic acid, NC(=O)c1ccc([C@@H](O[*:3])[C@H](N[*:1])C(=O)[*:2])cc1; bhcLeu = (1R,3S)-3-aminocyclopentane-1-carboxylic acid, O=C([C@@H]1CC[C@H](N[*:1])C1)[*:2]; Trp(βS-Me,7-OMe) = COc1cccc2c([C@H](C)[C@H](N)C(=O)O)c[nH]c12; dPro(trans-4-NMe2) = CN(C)[C@@H]1CN[C@@H](C(=O)O)C1; Trp(7-CN) = N#Cc1cccc2c(C[C@H](N)C(=O)O)c[nH]c12; Biotin = O=C1N[C@H]2[C@H](CS[C@H]2CCCCC(=O)*)N1; Phe(4-COOH) = N[C@@H](Cc1ccc(C(=O)O)cc1)C(=O)O; Trp(7-aza) = N[C@@H](Cc1c[nH]c2ncccc12)C(=O)O; Pip(4-aza) = O=C(O)[C@@H]1CNCCN1; hPhe = N[C@@H](CCc1ccccc1)C(=O)O; 4Pal = N[C@@H](Cc1ccncc1)C(=O)O; Cit = NC(=O)NCCC[C@H](N)C(=O)O; αMeS = C[C@](N)(CO)C(=O)O; NMeA = CN[C@@H](C)C(=O)O; Nle = CCCC[C@H](N)C(=O)O; AEA = NCCOCC(=O)O; Sar = CNCC(=O)O

The target in test [1] is T1, TNFR1 on THP-1 Lucia NF-κB cells, P19438.
T1 chain: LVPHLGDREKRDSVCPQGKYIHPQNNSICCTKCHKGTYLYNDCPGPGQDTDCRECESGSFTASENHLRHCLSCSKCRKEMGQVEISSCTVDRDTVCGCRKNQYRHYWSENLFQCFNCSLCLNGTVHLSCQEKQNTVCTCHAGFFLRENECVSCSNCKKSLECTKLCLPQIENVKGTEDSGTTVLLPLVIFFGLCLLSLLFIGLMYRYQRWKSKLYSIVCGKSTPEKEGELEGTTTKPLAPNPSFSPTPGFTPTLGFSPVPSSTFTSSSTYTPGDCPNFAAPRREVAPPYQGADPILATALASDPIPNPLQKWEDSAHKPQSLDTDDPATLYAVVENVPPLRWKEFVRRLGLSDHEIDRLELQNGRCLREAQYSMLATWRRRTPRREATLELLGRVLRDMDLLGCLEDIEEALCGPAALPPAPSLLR
Put plainly: cell-based or functional assay.

Test [2] has as its target T2, Recombinant human TNFR1 extracellular domain (ECD) protein, biotinylated via C-terminal avi-tag (human).
T2 chain: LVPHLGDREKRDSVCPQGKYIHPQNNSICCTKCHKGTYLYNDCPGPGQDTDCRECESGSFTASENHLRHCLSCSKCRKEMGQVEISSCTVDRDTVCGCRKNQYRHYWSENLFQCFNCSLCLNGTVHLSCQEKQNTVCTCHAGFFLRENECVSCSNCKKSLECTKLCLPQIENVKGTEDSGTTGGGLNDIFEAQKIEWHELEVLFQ
Kind of test: SPR, peptide analyte on captured biotinylated TNFR1 ECD.

In test [3] the target is T3, C'-terminally 6His-tagged human soluble TNFR1 (sTNFR1, residues 1-211) (human).
T3 chain: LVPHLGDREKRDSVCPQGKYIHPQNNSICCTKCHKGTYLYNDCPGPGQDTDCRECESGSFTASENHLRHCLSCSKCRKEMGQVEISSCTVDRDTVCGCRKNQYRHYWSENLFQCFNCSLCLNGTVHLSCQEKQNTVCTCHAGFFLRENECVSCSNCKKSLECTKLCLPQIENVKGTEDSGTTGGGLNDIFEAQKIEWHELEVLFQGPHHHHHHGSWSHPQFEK
Kind of test: TR-FRET displacement of biotinylated peptide SEQ ID NO. 1 from sTNFR1-6His. On the technique in general: In TR-FRET formats the signal depends on donor and acceptor labels being close together.

The target in test [4] is T4, TNFR1 on THP-1 Lucia NF-κB reporter cells, P19438.
T4 chain: T1 chain
Put plainly: cell-based or functional assay.

In test [5] the target is T5, recombinant human TNFR1 extracellular domain (ECD), biotinylated via C-terminal Avi-tag, construct SEQ. ID NO. P2 (human).
T5 chain: T2 chain
Put plainly: SPR (Cytiva 8K/8K+), peptide analyte over captured biotinylated human TNFR1 ECD.

For test [6], the target named is T6, human soluble TNFR1, C-terminally 6His-tagged (sTNFR1-6His, residues 1-211), SEQ. ID NO. P1 (human).
T6 chain: T3 chain
Kind of test: TR-FRET displacement of biotinylated peptide SEQ ID NO. 1 from sTNFR1-6His; 4-parameter fit.

Test [7] addresses human soluble TNFR1, C-terminally 6His-tagged (sTNFR1-6His, residues 1-211), SEQ. ID NO. P1 (human). Put plainly: TR-FRET displacement of biotinylated peptide SEQ ID NO. 1 from sTNFR1-6His; Morrison-based 5-parameter fit.
Test [8] addresses T7, TNFR1 on THP-1 Lucia NF-kB reporter cells, P19438.
T7 chain: T1 chain
Put plainly: cell-based or functional assay.

B1: SEQ ID NO. 242 (peptide)
peptide: {CH2CO}-KYSW[dP]Q[4Pal]W[αMeS][Phe(4-COOH)]Y[Sar]WC-NH2
modifications: thioether N-14
SMILES: CN1CC(=O)N[C@@H](Cc2c[nH]c3ccccc23)C(=O)N[C@H](C(N)=O)CSCC(=O)N[C@@H](CCCCN)C(=O)N[C@@H](Cc2ccc(O)cc2)C(=O)N[C@@H](CO)C(=O)N[C@@H](Cc2c[nH]c3ccccc23)C(=O)N2CCC[C@@H]2C(=O)N[C@@H](CCC(N)=O)C(=O)N[C@@H](Cc2ccncc2)C(=O)N[C@@H](Cc2c[nH]c3ccccc23)C(=O)N[C@@](C)(CO)C(=O)N[C@@H](Cc2ccc(C(=O)O)cc2)C(=O)N[C@@H](Cc2ccc(O)cc2)C1=O
In test [1], B1 registered a THP-1 IC50 of 3 nM. Moreover, the Kd (commonly the free concentration of one partner at which half of the binding sites on the other are occupied at equilibrium, for simple one-to-one binding) in test [2] is 0.3 nM. Besides, in test [3], the IC50 (as a rule, the midpoint of a concentration-inhibition curve) was found to be 1.21 nM.

In turn, FYSWGNYWSYYGWCGEE (modifications not checked) [SEQ ID NO. 289 (Example No. 289) macrocyclic peptide] showed a THP-1 IC50 in test [4] of 36.4 nM. In test [5], the dissociation constant Kd was found to be 7.43 nM. This molecule displayed an IC50 in test [6] of 9.87 nM.

B2: SEQ ID NO. 260 (peptide)
peptide: {CH2CO}-[hPhe]YSW[NMeA]N[4Pal]W[αMeS][Phe(4-COOH)]R[Sar]WC-NH2
modifications: thioether N-14
SMILES: C[C@H]1C(=O)N[C@@H](CC(N)=O)C(=O)N[C@@H](Cc2ccncc2)C(=O)N[C@@H](Cc2c[nH]c3ccccc23)C(=O)N[C@@](C)(CO)C(=O)N[C@@H](Cc2ccc(C(=O)O)cc2)C(=O)N[C@@H](CCCNC(=N)N)C(=O)N(C)CC(=O)N[C@@H](Cc2c[nH]c3ccccc23)C(=O)N[C@H](C(N)=O)CSCC(=O)N[C@@H](CCc2ccccc2)C(=O)N[C@@H](Cc2ccc(O)cc2)C(=O)N[C@@H](CO)C(=O)N[C@@H](Cc2c[nH]c3ccccc23)C(=O)N1C
B2: the THP-1 IC50 in test [1] was determined as 50.1 nM. Moreover, in test [2], the Kd was found to be 6 nM. For the same molecule, the IC50 in test [3] was found to be 10.2 nM.

B3: SEQ ID NO. 287 (Example No. 287) macrocyclic peptide (peptide)
peptide: cyclo([bhcLeu][Nle][4Pal][Pip(4-aza)][Trp(7-aza)][dPro(trans-4-NMe2)]N[Phe(4-COOH)][Trp(7-CN)][αMeS][Phe(4-COOH)][RbOHPhe4CONH2][Sar][Trp(βS-Me,7-OMe)])
SMILES: CCCC[C@@H]1NC(=O)[C@@H]2CC[C@@H](C2)NC(=O)[C@H]([C@@H](C)c2c[nH]c3c(OC)cccc23)NC(=O)CN(C)C(=O)[C@H]([C@H](O)c2ccc(C(N)=O)cc2)NC(=O)[C@H](Cc2ccc(C(=O)O)cc2)NC(=O)[C@](C)(CO)NC(=O)[C@H](Cc2c[nH]c3c(C#N)cccc23)NC(=O)[C@H](Cc2ccc(C(=O)O)cc2)NC(=O)[C@H](CC(N)=O)NC(=O)[C@H]2C[C@H](N(C)C)CN2C(=O)[C@H](Cc2c[nH]c3ncccc23)NC(=O)[C@@H]2CNCCN2C(=O)[C@H](Cc2ccncc2)NC1=O
B3 had a Kd^app in test [7] of 0.22 nM.

As for {CH2CO}-FYSW[Sar]NYWSYY[Sar]WCG[AEA]K(Biotin) (thioether N-14) [SEQ ID NO. 1], in test [8], the THP-1 IC50 amounted to 227 nM.

B4: SEQ ID NO. 256 (peptide)
peptide: {CH2CO}-KYSW[dP][Cit][4Pal]W[αMeS][Phe(4-COOH)]Y[Sar]WC-NH2
modifications: thioether N-14
SMILES: CN1CC(=O)N[C@@H](Cc2c[nH]c3ccccc23)C(=O)N[C@H](C(N)=O)CSCC(=O)N[C@@H](CCCCN)C(=O)N[C@@H](Cc2ccc(O)cc2)C(=O)N[C@@H](CO)C(=O)N[C@@H](Cc2c[nH]c3ccccc23)C(=O)N2CCC[C@@H]2C(=O)N[C@@H](CCCNC(N)=O)C(=O)N[C@@H](Cc2ccncc2)C(=O)N[C@@H](Cc2c[nH]c3ccccc23)C(=O)N[C@@](C)(CO)C(=O)N[C@@H](Cc2ccc(C(=O)O)cc2)C(=O)N[C@@H](Cc2ccc(O)cc2)C1=O
Turning to B4, the THP-1 IC50 in test [1] was 6.1 nM. Moreover, the dissociation constant (Kd) in test [2] was determined as 1.4 nM. The molecule also came in with an IC50 in test [3] of 1.84 nM.

The values above are taken from patent US20240287138A1, “CYCLIC PEPTIDES FOR INHIBITING TNF RECEPTOR 1 ACTIVITY” (Merck Sharp & Dohme LLC, priority 2023, published 2024).
